This experiment addresses human C3b (human). As to the kind of experiment: SPR. (In general: SPR reads the build-up and loss of mass on a sensor chip optically.)

By Kd is commonly meant the constant that tells how readily two partners part at equilibrium. Read a high Kd as weaker binding.

“(R78G)FH1–4^V62 (from UniProt P08603 19-263) (domain or fragment)” registered a Kd of over 35 µM.

The record behind these values is PMC3064162.
